# Laboratory results published in paper PMC3234886 (Biochemistry, 2011).
# Residue numbers refer to the chain shown, from its start.
# T1: His6-Rna14-ES (R562E/Y563S) (Saccharomyces cerevisiae, UniProt P25298 1-677, R562E | Y563S)
# T1 sequence (looked up): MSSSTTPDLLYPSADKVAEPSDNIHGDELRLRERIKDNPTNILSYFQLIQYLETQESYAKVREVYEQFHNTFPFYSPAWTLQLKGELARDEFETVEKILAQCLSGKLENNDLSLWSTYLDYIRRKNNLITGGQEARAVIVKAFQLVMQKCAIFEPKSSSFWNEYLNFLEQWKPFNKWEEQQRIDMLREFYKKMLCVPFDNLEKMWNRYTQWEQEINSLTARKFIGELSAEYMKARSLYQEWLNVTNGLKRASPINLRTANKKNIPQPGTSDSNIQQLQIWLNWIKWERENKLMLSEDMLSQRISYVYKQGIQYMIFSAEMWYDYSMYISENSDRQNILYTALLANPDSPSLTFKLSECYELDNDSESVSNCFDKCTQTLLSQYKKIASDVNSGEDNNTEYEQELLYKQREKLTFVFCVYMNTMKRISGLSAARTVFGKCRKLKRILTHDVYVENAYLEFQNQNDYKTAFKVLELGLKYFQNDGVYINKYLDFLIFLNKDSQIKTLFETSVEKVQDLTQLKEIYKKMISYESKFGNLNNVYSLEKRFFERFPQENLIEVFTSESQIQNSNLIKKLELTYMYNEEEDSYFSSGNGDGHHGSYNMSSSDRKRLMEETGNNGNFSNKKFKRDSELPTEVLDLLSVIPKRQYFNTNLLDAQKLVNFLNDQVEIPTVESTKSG
# B1: His6-Rna14 (wild type) (natural protein, Saccharomyces cerevisiae, UniProt P25298 1-677, looked up)
# chain: T1 sequence (looked up) with E562R, S563Y
# B2: wild-type Rna14/Rna15 complex (2:2 heterotetramer) (complex, Saccharomyces cerevisiae)
# chain 1: T1 sequence (looked up) with E562R, S563Y
# chain 2: MNRQSGVNAGVQNNPPSRVVYLGSIPYDQTEEQILDLCSNVGPVINLKMMFDPQTGRSKGYAFIEFRDLESSASAVRNLNGYQLGSRFLKCGYSSNSDISGVSQQQQQQYNNINGNNNNNGNNNNNSNGPDFQNSGNANFLSQKFPELPSGIDVNINMTTPAMMISSELAKKPKEVQLKFLQKFQEWTRAHPEDAVSLLELCPQLSFVTAELLLTNGICKVDDLIPLASRPQEEASATNNNSVNEVVDPAVLNKQKELLKQVLQLNDSQISILPDDERMAIWDLKQKALRGEFGAF
# B3: Rna15 (untagged, co-expressed with Rna14) (natural protein, Saccharomyces cerevisiae, UniProt P25299 1-296, looked up)
# chain: B2 chain 2
# How the values were obtained:
# [1] = target: His6-Rna14 (wild type) (Saccharomyces cerevisiae) (UniProt P25298); assay: SEC
# [2] = target: His6-Rna14 (wild type) (Saccharomyces cerevisiae) (UniProt P25298); assay: cross-linking
# [3] = target: His6-Rna14 (wild type) (Saccharomyces cerevisiae) (UniProt P25298); assay: AUC
# cross-linking = target: the molecule itself; assay: cross-linking
# SEC = target: the molecule itself; assay: SEC
# [4] = target: MBP-tagged Pcf11/Clp1 complex (yeast, UniProt P39081 1-626; Q08685 1-445); assay: pull-down
# Chain of MBP-tagged Pcf11/Clp1 complex (P39081 whole entry, chain 1 of 2): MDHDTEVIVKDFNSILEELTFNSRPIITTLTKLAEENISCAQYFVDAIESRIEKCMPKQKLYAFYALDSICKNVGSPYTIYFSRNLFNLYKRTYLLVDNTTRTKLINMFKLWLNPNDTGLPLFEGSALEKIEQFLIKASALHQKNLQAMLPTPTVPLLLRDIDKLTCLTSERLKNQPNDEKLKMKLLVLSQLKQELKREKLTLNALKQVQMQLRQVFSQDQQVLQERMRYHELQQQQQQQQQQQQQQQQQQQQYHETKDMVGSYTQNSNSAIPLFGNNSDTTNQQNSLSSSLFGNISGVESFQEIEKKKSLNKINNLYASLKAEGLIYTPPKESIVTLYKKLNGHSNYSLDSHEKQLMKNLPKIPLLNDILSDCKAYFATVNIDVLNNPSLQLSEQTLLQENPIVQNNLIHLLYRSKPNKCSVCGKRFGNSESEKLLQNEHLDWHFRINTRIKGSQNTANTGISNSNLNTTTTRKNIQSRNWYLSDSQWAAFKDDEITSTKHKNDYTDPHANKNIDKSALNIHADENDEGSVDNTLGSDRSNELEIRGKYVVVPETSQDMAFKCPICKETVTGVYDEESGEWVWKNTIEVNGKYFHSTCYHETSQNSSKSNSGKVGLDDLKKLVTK
# Chain of MBP-tagged Pcf11/Clp1 complex (Q08685 whole entry, chain 2 of 2): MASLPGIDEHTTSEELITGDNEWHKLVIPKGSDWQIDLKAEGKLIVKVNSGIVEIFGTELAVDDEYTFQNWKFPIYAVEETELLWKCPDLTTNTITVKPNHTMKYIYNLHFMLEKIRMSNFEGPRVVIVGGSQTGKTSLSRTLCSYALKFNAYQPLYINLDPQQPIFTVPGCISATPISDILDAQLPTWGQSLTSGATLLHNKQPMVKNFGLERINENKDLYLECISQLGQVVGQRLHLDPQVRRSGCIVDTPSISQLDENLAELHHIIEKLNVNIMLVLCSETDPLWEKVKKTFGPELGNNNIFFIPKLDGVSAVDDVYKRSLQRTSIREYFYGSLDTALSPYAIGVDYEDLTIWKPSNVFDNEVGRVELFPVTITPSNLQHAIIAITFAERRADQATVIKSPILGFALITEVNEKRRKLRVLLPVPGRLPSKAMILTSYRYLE
# AUC = target: the molecule itself; assay: AUC
# [5] = target: T1, His6-Rna14-ES (R562E/Y563S); assay: cross-linking
# [6] = target: T1, His6-Rna14-ES (R562E/Y563S); assay: SEC
molecule,measurement,setting,value
"Rna15 (untagged, co-expressed with Rna14) (from UniProt P25299 1-296) (natural protein)","ratio of Rna14 to Rna15 (intensity of stained bands, SEC peak fractions)",[1],2.7
same,stoichiometry N (Rna15 per Rna14 (2:2)),[2],1
same,stoichiometry N (Rna15 per Rna14 (2:2)),[3],1
B1,stoichiometry N,cross-linking,2 copies of Rna14 in the complex
same,stoichiometry N,SEC,2
B2,stoichiometry N,[4],1 Clp1/Pcf11 sub-complex per CF IA
same,Kd,AUC,45 µM
B3,stoichiometry N,[5],1 Rna15 per Rna14-ES (1:1)
same,"ratio of Rna14 to Rna15 (intensity of stained bands, SEC peak fractions)",[6],2.5
